For one substance, TNF level detected by sandwich ELISA after preincubation of recombinant TNF (1000 pg/mL) with 12 ug/mL BmooMP-alpha-I for 45 min and TNF level detected by sandwich ELISA after preincubation of recombinant TNF with BmooMP-alpha-I inactivated with 10 mM Na2EDTA (BmooMP-alpha-I(i)) results are on record in article PMC4963855.

The assay concerns the target mouse recombinant TNF (mouse) (UniProt P06804).
Chain of UniProt P06804 (P06804 80-235): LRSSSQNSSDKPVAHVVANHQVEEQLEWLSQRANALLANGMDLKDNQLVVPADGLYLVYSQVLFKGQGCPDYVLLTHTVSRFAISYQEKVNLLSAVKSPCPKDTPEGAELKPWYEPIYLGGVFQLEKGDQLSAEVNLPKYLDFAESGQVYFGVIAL

For “BmooMP-alpha-I, zinc metalloprotease of class P-I from Bothrops moojeni snake venom (enzyme)”, the TNF level detected by sandwich ELISA after preincubation of recombinant TNF (1000 pg/mL) with 12 ug/mL BmooMP-alpha-I for 45 min at 37 °C (degradation of TNF) came out at 53.4 % decrease and the TNF level detected by sandwich ELISA after preincubation of recombinant TNF with BmooMP-alpha-I inactivated with 10 mM Na2EDTA (BmooMP-alpha-I(i)) is 80%.
